The values that follow come from patent US20170112894A1 (CANBAS, published 2017).

Square brackets hold non-standard residues; d marks the D form. Ends that are not written are not given here. dPhe(4-NO2) = N[C@H](Cc1ccc([N+](=O)[O-])cc1)C(=O)O; dPhe(F5) = N[C@H](Cc1c(F)c(F)c(F)c(F)c1F)C(=O)O; dBpa = N[C@H](Cc1ccc(C(=O)c2ccccc2)cc1)C(=O)O; dCha = N[C@H](CC1CCCCC1)C(=O)O Where only a bound is given, the exact number is not on record here.

Holding throughout (assay): cell-based or functional assay
Assay [1] concerns the target E. Coli derived recombinant human full length Chk2 fused with GST (human, UniProt O96017 1-543).
In assay [2] the target is T1, baculovirus derived recombinant human full length Chk1 with histidine tag (human, UniProt O14757 1-476).
T1 sequence: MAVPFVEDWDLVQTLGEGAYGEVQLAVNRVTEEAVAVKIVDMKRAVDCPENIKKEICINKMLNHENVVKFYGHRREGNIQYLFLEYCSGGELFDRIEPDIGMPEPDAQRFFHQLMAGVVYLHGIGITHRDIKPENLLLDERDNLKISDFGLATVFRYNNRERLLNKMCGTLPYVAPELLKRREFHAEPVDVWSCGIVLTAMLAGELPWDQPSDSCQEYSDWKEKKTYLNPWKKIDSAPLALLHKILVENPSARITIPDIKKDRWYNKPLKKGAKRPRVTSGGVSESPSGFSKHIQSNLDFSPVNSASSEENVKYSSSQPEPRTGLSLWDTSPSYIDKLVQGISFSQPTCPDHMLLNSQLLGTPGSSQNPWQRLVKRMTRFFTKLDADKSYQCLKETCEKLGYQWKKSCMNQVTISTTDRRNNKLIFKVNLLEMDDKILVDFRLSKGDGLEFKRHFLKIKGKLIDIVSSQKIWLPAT

Assay [3] has as its target PKA.
For assay [4], the target named is purified CHK2 kinase.

Sequence of E. Coli derived recombinant human full length Chk2 fused with GST (O96017 whole entry, the tested form may be a part): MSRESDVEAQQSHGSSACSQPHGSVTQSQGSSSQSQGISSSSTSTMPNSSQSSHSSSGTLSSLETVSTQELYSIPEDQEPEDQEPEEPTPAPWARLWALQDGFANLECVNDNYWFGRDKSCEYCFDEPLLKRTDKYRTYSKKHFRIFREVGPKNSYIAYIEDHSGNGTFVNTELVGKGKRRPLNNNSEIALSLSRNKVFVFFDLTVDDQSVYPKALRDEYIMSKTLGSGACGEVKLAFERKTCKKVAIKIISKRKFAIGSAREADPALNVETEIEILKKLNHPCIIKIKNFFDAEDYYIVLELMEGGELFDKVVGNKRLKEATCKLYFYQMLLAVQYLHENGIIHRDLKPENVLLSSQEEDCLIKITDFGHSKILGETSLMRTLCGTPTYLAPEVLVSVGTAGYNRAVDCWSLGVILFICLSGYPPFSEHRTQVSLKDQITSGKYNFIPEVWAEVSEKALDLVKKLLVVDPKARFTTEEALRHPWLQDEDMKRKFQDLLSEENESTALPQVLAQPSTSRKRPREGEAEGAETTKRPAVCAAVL

[dBpa][dS][dW][dS][dPhe(4-NO2)][dCha][dR][dR][dR][dQ][dR][dR] [CBP603]: the “Kinase inhibition (phosphorylation of serine 216 on GST-Cdc25C 167-267, enzyme linked immune assay)” value in assay [1] was 18.1; in assay [2], 15.5.

For [dY][dY][dS]G[dS][dR][dPhe(F5)][dCha][dR][dR][dR][dQ][dR][dR][dK][dK][dR]G[dY] [CBP450], the “IC50, kinase inhibition (PepTag Non-Radioactive Protein Kinase Assay)” value is over 400 µM in assay [3] and 10 µM in assay [4].

As to [dBpa][dD][dS][dW][dS][dPhe(F5)][dCha][dR][dR][dR][dQ][dR][dR] [CBP505], the “Kinase inhibition (phosphorylation of serine 216 on GST-Cdc25C 167-267, enzyme linked immune assay)” value was over 100 in assay [1] and 63.4 in assay [2].

On to [dBpa][dS][dW][dS][dPhe(F5)][dCha][dR][dR][dR][dQ][dR][dR] [CBP501], for which the “Kinase inhibition (phosphorylation of serine 216 on GST-Cdc25C 167-267, enzyme linked immune assay)” value in assay [1] came to 18.6; in assay [2], 7.9.

B1: CBP440 (peptide)
peptide: YGRKKRRQRRRXFXYY
modifications: (l-Tyr)(l-Gly)(l-Arg)(l-Lys)(l-Lys)(l-Arg)(l-Arg)(l-Gln)(l-Arg)(l-Arg)(l-Arg)(l-Cha)(l-Phe-2,3,4,5,6-F)(l-aminoundecanoic acid)(l-Tyr)(l-Tyr): Cha = cyclohexyl-alanine; Phe-2,3,4,5,6-F = pentafluoro-phenylalanine; aminoundecanoic acid spacer
For the molecule B1, the figures for the “IC50, kinase inhibition (PepTag Non-Radioactive Protein Kinase Assay)” value in assay [3] and in assay [4] were 180 µM and 8 µM, respectively.

[dY][dBpa][dS][dW][dS][dPhe(F5)][dCha][dR][dR][dR][dQ][dR][dR] [CBP500]: the “Kinase inhibition (phosphorylation of serine 216 on GST-Cdc25C 167-267, enzyme linked immune assay)” value in assay [1] came out at 8; in assay [2] it was 5.6.
